Assay results published in the supplement of paper PMC10724198.
± gives the standard deviation of the averaged measurements.

System: Saccharomyces cerevisiae
Assay: protein stability index of tFT-peptide fusion (C-terminal peptide) (PSI (0-1 scale)); higher = more stable (slower turnover)
Conditions: genetic background: wild type; temperature: 30 C
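Note: PSI is a weighted mean of sequencing reads over stability bins, variants kept only with over 10 reads, mCherry proximal and sfGFP distal, peptide attached via GGGS linker.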

GLSFSAALFSAF
protein stability index: 0.673 ± 0.05

CRPTGSSTRFQL
protein stability index: 0.718 ± 0.01

APPPPPDHPFPP
protein stability index: 0.691 ± 0.08

LFTLSGAPLALP
protein stability index: 0.729 ± 0.015

RRPPRVYLQLSI
protein stability index: 0.67 ± 0.066

RAKLKKNKRRCK
protein stability index: 0.719 ± 0.0067

SLLPSSFRAPAP
protein stability index: 0.652 ± 0.045

RLEAVLCRRFLR
protein stability index: 0.6561 ± 0.0026

SSTPYRHLLTPH
protein stability index: 0.723 ± 0.013

IGLVVVRPKIMI
protein stability index: 0.558 ± 0.012

IDKVTNTGSRKV
protein stability index: 0.582 ± 0.05

ARVRAREGGDRG
protein stability index: 0.624 ± 0.0076

FGESGSGSKRCG
protein stability index: 0.701 ± 0.12

HRFFDGVRFPGH
protein stability index: 0.692 ± 0.038

MACCGVFISHKT
protein stability index: 0.615 ± 0.026

ERNEERKATTRS
protein stability index: 0.726 ± 0.067

APSELSSRPFLL
protein stability index: 0.707 ± 0.026

TWVVPSASWLVF
protein stability index: 0.598 ± 0.009

SRPFAILLCAEK
protein stability index: 0.62 ± 0.015

NKNKENMKRKTK
protein stability index: 0.682 ± 0.039

CDVLNQTRKRHK
protein stability index: 0.7028 ± 0.0019

SYPSGFPSPSHP
protein stability index: 0.834 ± 0.062

PAPAPPPSPLPP
protein stability index: 0.655 ± 0.028

RGRSGASSGWRG
protein stability index: 0.659 ± 0.044

LRHRAYPKLFPA
protein stability index: 0.708 ± 0.011

LPSPSPPPPLLL
protein stability index: 0.677 ± 0.015

ASPSPLPPLPPP
protein stability index: 0.718 ± 0.1

TRGDCFAVRKAR
protein stability index: 0.702 ± 0.027

TPRPPPSSFLSL
protein stability index: 0.679 ± 0.05

APPPPPSRLFPP
protein stability index: 0.672 ± 0.028

CVDWGAVGLVAG
protein stability index: 0.598 ± 0.018

HFPLRIYSPNGP
protein stability index: 0.697 ± 0.095

PSFSPLPLPSIV
protein stability index: 0.728 ± 0.039

AHWFMPVSCLLV
protein stability index: 0.838 ± 0.2

TSRSPLCTETIP
protein stability index: 0.736 ± 0.0074

NKRCRNITIQRA
protein stability index: 0.73379 ± 0.00047

FGAIREVFYIRL
protein stability index: 0.662 ± 0.018

RETMFTRFRGSD
protein stability index: 0.627 ± 0.063

HLPWTGTPHATV
protein stability index: 0.737 ± 0.029

RNSTDENDCGRK
protein stability index: 0.7062 ± 0.00038

FGGEGGEEMAGG
protein stability index: 0.789 ± 0.034

LPASLPPPPPPY
protein stability index: 0.756 ± 0.058

HHSLLLPPPPPP
protein stability index: 0.673 ± 0.019

RSPPPLPSPPSH
protein stability index: 0.709 ± 0.035

IGDRQIDFFKKD
protein stability index: 0.7073 ± 0.0024

GLRSKLEKVQRG
protein stability index: 0.726 ± 0.047

ACGDRGGLCSEG
protein stability index: 0.616 ± 0.066

PRALLPPSPPSP
protein stability index: 0.635 ± 0.09

PPPPPPPLTSLP
protein stability index: 0.7175 ± 0.0013

QKTVRDIRIAAL
protein stability index: 0.591 ± 0.086

CPRPPPPTACPV
protein stability index: 0.641 ± 0.1

VCKGGRIEYGLQ
protein stability index: 0.666 ± 0.037

IWRPGVAQSGLA
protein stability index: 0.7205 ± 0.0055

RSRSELRVFCTS
protein stability index: 0.556 ± 0.011

TEVWSGFARWGG
protein stability index: 0.675 ± 0.046

SLCPVTPPSVGF
protein stability index: 0.656 ± 0.02

ALFPPPSLRPLP
protein stability index: 0.724 ± 0.054

EVKERGRGCREG
protein stability index: 0.659 ± 0.03

IVLAGVCGGVVG
protein stability index: 0.733 ± 0.29

GVGGGMGMGERW
protein stability index: 0.788 ± 0.18

PTPGSPPPPLHP
protein stability index: 0.706 ± 0.02

PDYPLSCLLFFP
protein stability index: 0.643 ± 0.011

KFSVVMFLDGSW
protein stability index: 0.697 ± 0.084

ERQSMNKRERNP
protein stability index: 0.683 ± 0.023

VFSAVIFFDCVQ
protein stability index: 0.629 ± 0.014

PLPQNIPFPLPL
protein stability index: 0.735 ± 0.019

ATSFSLLPACFS
protein stability index: 0.686 ± 0.0007

APPPPRPLLPSL
protein stability index: 0.723 ± 0.047

KKKIINEKKKKD
protein stability index: 0.70019 ± 0.00067

GENVVPGLHTQV
protein stability index: 0.675 ± 0.064

LGWGRWFWGVRG
protein stability index: 0.653 ± 0.026

RGEGGRALGVGR
protein stability index: 0.688 ± 0.015

PLPFPPPLPPPT
protein stability index: 0.681 ± 0.043

CLRFPALPRRHP
protein stability index: 0.772 ± 0.017

PLSPPPPSPPRP
protein stability index: 0.645 ± 0.025

AHADISPIHNLH
protein stability index: 0.627 ± 0.0066

LLLPPLPPLSLS
protein stability index: 0.7135 ± 0.0058

ARSPSPLPSPPP
protein stability index: 0.702 ± 0.018

GLMTISFPSFFR
protein stability index: 0.704 ± 0.068

KCKGTCESRRGI
protein stability index: 0.833 ± 0.034

GVGSVADWGGVG
protein stability index: 0.599 ± 0.018
